{
  "source": "patent US20130224829A1",
  "about": "“NOVEL LIPOXYGENASE DERIVED FROM LEMNA PAUCICOSTATA” (priority 2010, published 2013)",
  "molecules": {"B1": {"name": "441LpLOX2: Position 9 product specific lipoxygenase 2 obtained from Lemna paucicostata 441 strain (SEQ ID NO: 6) (protein, listed as Lemna paucicostata)", "chain": "MADFLQKVTNNLLHKAAKISGTVVLVKSNVIGFNDFGDSFLDGLHELLGSGITFQLVSATVGDPNNGNKGKLGKPALLEKWITTGTFLVAGDSGFKVNFEWDEQLGIPGAVIVKNNHHGEFFLKSFTLDGVPGPRSRIHFDCNSWVYPYSTYNYDRVFFANDTYLPGETPEPLKAYRAAELVNLRGDGVTRELKEGDRIYAYDYYNDLGDPDSGKELARPILGGSKEYPYPRRARTGRKLTKTDPKSEQRLPLVFSLNVYVPRDERFGHLKMSDFLAYSLKALAQGLVPALDAAADITPFEFDTFQDVLNLYEGGINLPTTPASENFKKQIPFPLVKELFRSDGENVFRLPTPSVIKADKFAWRTDEEFGREMLAGVNPVCIRLLTKFPPVSSLDPSIYGNQNSTMIADQLEKNMNGLSVEEALKQKKLFILDHHDSLMPYLERINTFNKIYASRTVLLLRDDGTLKPLAIELSLPIKGEKGAVSKVYTPAEHGVEGAVWQLAKAYVAVNDSGVHQLISHWLNTHATIEPFSIALNRQLSVVHPIYKLLHPHFRDTMNINAFARQILINAGGILEMTVFPGKYAMEMSSVVYKGWKLTDQALPVDLLNRGVAEKDPSSGELRLLIEDYPYAVDGLDVWNAIEEWVKEYCAIYYPSDKTLLDDTELQAWWKEVREVGHGDKKDETWWPAMETVAELTQTCCTIIWVASALHAAVNFAQYPYAGYLPNRPTISRRFMPEPGTPEYEELETDPDRAFLKTITSQLQTLIGVSLIEILSRHSSDEIYLGQRVSAEWTSDAKALAAFKAFGEKLITIENKIIQMNVDSSLKNRNGPVKVPYTFLYPNTTDYTRVGGLTGRGIPNSISI"}, "B2": {"name": "SHLpLOX: Position 9 product specific lipoxygenase obtained from Lemna paucicostata SH strain (SEQ ID NO: 2), expressed in Escherichia coli (protein, listed as Lemna paucicostata)", "chain": "MAGFLQKVTDNLLHKAAKISGTVVLVKSNVVGFNDFADSFLDGLHELLGSGITFQLVSATVGDPKNGNKGKLGKPALLEKWITTGTFLAAGDSGFKVNFEWDEQLGVPGAVIVKNNHHGEFFLKSLTLDGAPGPRSRIHFDCNSWVYPYSTYNYDRVFFANDTYLPGEMPEPLKAYRAAELVNLRGDGVTRELKEGDRIYAYDLYNDLGDPDSGKELARPILGGSEEYPYPRRARTGRKLTKTDPKSEQRLPLVFSLNVYVPRDERFGHLKMSDFLAYSLKALAQGLVPALDAATDITPFEFDTFQDVLNLYEGGINLPTTPALENFKKQIPFPLVKELFRSDGENLFRLPTPSVIKADKFAWRTDEEFGREMLAGVNPVCIRLLKKFPPVSSLDPSIYRNQNSTMIADQLEKNMNGLSVEEALKQKKLFILDHHDSLMPYLERINTFNKIYASRTVLLLQDDGTLKPLAIELSLPVKGEKGAVSKVYTPAEHGVEGAVWQLAKAYVAVNDSGVHQLISHWLNTHATIEPFSIALNRQLSVVHPIYKLLHPHFRDTMNINAFARQILINAGGILEMTVFPGKYAMEMSSVVYKGWKLTDQALPVDLLNRGVAEKDPSSGELRLLIEDYPYAVDGLDVWNAIEEWVKEYCAIYYPSDKTLQDDTEVQAWWKEVREVGHGDKKDETWWPAMETVAELTQTCSTIIWVASALHAAVNFAQYPYAGYLPNRPTISRRFMPEPGTPEYEELETDPDRAFLKTITSQLQTLIGVSLIEILSRHSSDEIYLGQRVSAEWTSDAKALAAFKAFGEKLITIENKIIEMNVDSSLKNRNGPVKVPYTFLYPNTTDYTRVGGLTGRGIPNSISI"}, "B3": {"name": "441LpLOX1: Position 9 product specific lipoxygenase 1 obtained from Lemna paucicostata 441 strain (SEQ ID NO: 4) (protein, listed as Lemna paucicostata)", "chain": "MDAFIHKVTDVFTHKEENKVAKISGTVVIVKSNVVGFNDFVDSFLDGLHELVGSGITFQLISATVGDPKNGNKGKLGKPAQLERWITTGTFLAAGDSGFKLTFEWDEQLGFPGAVIVKNNHHGEFFLKSFTLDGVPGKKTRIHFDCNSWVYPYSTYNYDRVFFANDTFLPGNMPEPLKAYRAAELANLRGDGVAPRELKEGDRIYAYDVYNDLGDPDSGEELVRPILGGSKEYPYPRRARTGRKMTKTDPKSETRLPLLFSLNVYVPRDERFGHLKMSDFLGYSLKALAQGLVPVLNEAADLTPFEFDTFQDVLNLYEGGIDLPDSPALENVRKQIPFALIKELFRSDGENLFRLPTPAVIKADKFAWRTDEEFGREMLAGVNPVCIRLLTKFPPVSSLDPNTYGDHNSTMTADQLEKNMNGLSVEEALNKKKLFILDHHDSLMPYLERINTFNKIYASRTVLLLQDDGTLKPLAIELSLPIKGQKGAVSKVYTPAEHGVEAAVWQLAKAFAAVNDSGVHQLISHWLNTHATIEPFAIALNRQLSVVHPIYKLLHPHFRDTMNINAFARQILINAGGILEMTVFPGKYALEMSSVVYKGWKLIDHALPVDLLNRGVAENDPSAPGKLRLLIEDYPYAVDGLAVWSAIEIWVKEYCAIYYPSDKILQDDTELQAWWKEVREVGHGDKKDETWWPTMKTVAELTQTCCTIIWVASALHAAVNFGQYPYAGYLPNRPTVSRRFMPEPGTPEYEELKTDPDRAFLKTITSQLQTTIGVSLIEILSRHSSDEVYLGQRISAEWTTDEKALAAFKAFGERLITIENQIIEMNHEPKLKNRNGPVKLPYTLLYPNTSDYTRVGGLTGRGIPNSVSI"}},
  "assay": "Lipoxygenase activity of enzyme solutions on α-linolenic acid, reverse-phase HPLC of linolenic acid hydroperoxide",
  "format": "biochemical",
  "conditions": "for position 9 product specific lypoxygenase activity (peak of linolenic acid-9-hydroxyperoxide, 21.1 min): α-linolenic acid substrate, pH7.0, 30 minutes reaction, E. coli-expressed enzyme solution; for activity of position 9-product specific lypoxygenase compared with r9-LOX1 (amount of lynolenic acid-9-hydroperoxide): HPLC comparison, FIG. 6",
  "method": "The activity of lypoxygenase in the enzyme solutions of SHLpLOX, 441LpLOX1, 441LpLOX2 and r9-LpLOX1 which was used as a control, was determined. 25 μl of 5 mM α-lynolenic acid solution (including 0.05% Tween80), 10 μl of 0.2M phosphate Na Buffer (pH7.0), 5 μl of distilled water were added to 1.5 ml of tube, and then 10 μl of the enzyme solution was added to the tube, and allowed to react for 30 minutes. After the reaction was over, reactant was subjected to HPLC (reverse phase; Column: Capsule pack C-18 UG120 (4.6×250 mm, Shiseido), Column temperature: 40° C., Mobile phase: 50% acetnitril (0.02%TFA), Flow rate 1 ml/min, Detection: 210 nm) so as to detect the site specificity of produced lynolenic acid hydroperoxide and the production amount.\nThe amount of lynolenic acid-9-hydroperoxide form was compared based on the results of HPLC.",
  "data": [
    {"molecule": "B1", "values": [
      {"measurement": "position 9 product specific lypoxygenase activity (peak of linolenic acid-9-hydroxyperoxide, 21.1 min)", "result": "have position 9 product specific lypoxygenase activity"}
    ]},
    {"molecule": "B2", "values": [
      {"measurement": "activity of position 9-product specific lypoxygenase compared with r9-LOX1 (amount of lynolenic acid-9-hydroperoxide)", "result": "far higher activity"},
      {"measurement": "position 9 product specific lypoxygenase activity (peak of linolenic acid-9-hydroxyperoxide, 21.1 min)", "result": "have position 9 product specific lypoxygenase activity"}
    ]},
    {"molecule": "B3", "values": [
      {"measurement": "activity of position 9-product specific lypoxygenase compared with r9-LOX1 (amount of lynolenic acid-9-hydroperoxide)", "result": "far higher activity"},
      {"measurement": "position 9 product specific lypoxygenase activity (peak of linolenic acid-9-hydroxyperoxide, 21.1 min)", "result": "have position 9 product specific lypoxygenase activity"}
    ]}
  ]
}
